From paper PMC9801508 (2022) come the findings set out here.

B5: BCL11A extended zinc finger domain (exZnF23) (domain or fragment)
chain: PPVKSKSCEFCGKTFKFQSNLVVHRRSHTGEKPYKCNLCDHACTQASKLKRHMKTHMHKSSPMTVKSDDGLSTASSPEPGTSDLVGSASSALKSVVAKFKSENDPNLIPENGD

The target of experiment [1] is T1, BCL11A ZnF23 zinc finger domain.
T1 chain: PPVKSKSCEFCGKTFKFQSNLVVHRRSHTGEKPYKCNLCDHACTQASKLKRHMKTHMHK
Briefly: MST.

The target in experiment [2] is B5. Briefly: MST.
Experiment [3] addresses B5.
For experiment [4], the target named is B5. Briefly: MST.

Read-outs that look alike come from different tables or passages of the source.

What is called Kd is a measure of binding affinity in units of concentration. Higher therefore signals lower affinity.

B1: Nanobody wt2D9 (initial hit) (VHH)
VHH: QVQLVESGGGLVQAGGSLRLSCAASGSIFVNNAMGWYRQAPGKERELVAAISASGGSTYYADSVKGRFTISRDNAKNTVYLQMNSLKPEDTAVYYCAADQDVYPYEYWGQGTQVTVSS
For B1, the Kd was found to be 32900 nM in experiment [1] and 1260 nM in experiment [2].

B2: Nanobody 2D9_W108L (VHH)
VHH: QVQLVESGGGLVQAGGSLRLSCAASGSIFVNNAMGWYRQAPGKERELVAAISASGGSTYYADSVKGRFTISRDNAKNTVYLQMNSLKPEDTAVYYCAADQDVYPYEYLGQGTQVTVSS
Consider B2, for which binding in experiment [3] was characterised by a dissociation constant (Kd) of 23.4 nM.

B3: ZF5.3-2D9 (cell-permeant nanobody) (other)
chain: QVQLVESGGGLVQAGGSLRLSCAASGSIFVNNAMGWYRQAPGKERELVAAISASGGSTYYADSVKGRFTISRDNAKNTVYLQMNSLKPEDTAVYYCAADQDGYPYEYWGQGTQVTVSS
As for B3, the Kd in [4] was determined as 674 nM.

B4: Nanobody 2D9 (2D9_V102G) (VHH)
VHH: QVQLVESGGGLVQAGGSLRLSCAASGSIFVNNAMGWYRQAPGKERELVAAISASGGSTYYADSVKGRFTISRDNAKNTVYLQMNSLKPEDTAVYYCAADQDGYPYEYWGQGTQVTVSS
B4: the Kd was 343 nM in experiment [3] and 320 nM in experiment [4].

Turning to B5, the dissociation constant (Kd) in the experiment with V102D worked out at 331 nM; with Q100L, 224 nM; in the experiment with L81F, 1460 nM; with A97V, 75.2 nM; in the experiment with W108R, 56.5 nM.
